Results published in publication PMC3659287.

Target: wild-type pneumolysin (PLY) (Streptococcus pneumoniae) (UniProt Q04IN8)
Assay: ELISA

Sequence of UniProt Q04IN8 (Q04IN8 whole entry): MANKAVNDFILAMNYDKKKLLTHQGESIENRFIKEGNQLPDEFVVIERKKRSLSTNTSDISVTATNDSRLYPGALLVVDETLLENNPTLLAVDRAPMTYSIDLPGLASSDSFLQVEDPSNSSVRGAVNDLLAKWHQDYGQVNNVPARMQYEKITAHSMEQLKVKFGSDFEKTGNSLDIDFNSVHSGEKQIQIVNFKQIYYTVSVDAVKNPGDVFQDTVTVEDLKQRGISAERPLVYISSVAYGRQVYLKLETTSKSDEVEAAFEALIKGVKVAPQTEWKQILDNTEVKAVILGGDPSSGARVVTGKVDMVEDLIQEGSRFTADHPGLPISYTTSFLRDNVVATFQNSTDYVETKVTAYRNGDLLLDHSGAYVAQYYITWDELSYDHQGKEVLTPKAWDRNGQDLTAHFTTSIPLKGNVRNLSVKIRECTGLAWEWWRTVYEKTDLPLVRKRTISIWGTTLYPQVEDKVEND

Q: For “G-actin (non-muscle actin isolated from human platelets) (from UniProt P60709 1-375) (natural protein)”, which Kd is on record?
A: The Kd was 170 to 190 nM.
